Results on 5 variants are retold here after IntAct's records for PubMed 22466964.

The chains are these.
B1: UBX domain-containing protein 7 (Homo sapiens), O94888 (parent)
chain: MAAHGGSAASSALKGLIQQFTTITGASESVGKHMLEACNNNLEMAVTMFLDGGGIAEEPSTSSASVSTVRPHTEEEVRAPIPQKQEILVEPEPLFGAPKRRRPARSIFDGFRDFQTETIRQEQELRNGGAIDKKLTTLADLFRPPIDLMHKGSFETAKECGQMQNKWLMINIQNVQDFACQCLNRDVWSNEAVKNIIREHFIFWQVYHDSEEGQRYIQFYKLGDFPYVSILDPRTGQKLVEWHQLDVSSFLDQVTGFLGEHGQLDGLSSSPPKKCARSESLIDASEDSQLEAAIRASLQETHFDSTQTKQDSRSDEESESELFSGSEEFISVCGSDEEEEVENLAKSRKSPHKDLGHRKEENRRPLTEPPVRTDPGTATNHQGLPAVDSEILEMPPEKADGVVEGIDVNGPKAQLMLRYPDGKREQITLPEQAKLLALVKHVQSKGYPNERFELLTNFPRRKLSHLDYDITLQEAGLCPQETVFVQERN
B2: Cullin-2 (Homo sapiens), Q13617 (parent)
chain: MSLKPRVVDFDETWNKLLTTIKAVVMLEYVERATWNDRFSDIYALCVAYPEPLGERLYTETKIFLENHVRHLHKRVLESEEQVLVMYHRYWEEYSKGADYMDCLYRYLNTQFIKKNKLTEADLQYGYGGVDMNEPLMEIGELALDMWRKLMVEPLQAILIRMLLREIKNDRGGEDPNQKVIHGVINSFVHVEQYKKKFPLKFYQEIFESPFLTETGEYYKQEASNLLQESNCSQYMEKVLGRLKDEEIRCRKYLHPSSYTKVIHECQQRMVADHLQFLHAECHNIIRQEKKNDMANMYVLLRAVSTGLPHMIQELQNHIHDEGLRATSNLTQENMPTLFVESVLEVHGKFVQLINTVLNGDQHFMSALDKALTSVVNYREPKSVCKAPELLAKYCDNLLKKSAKGMTENEVEDRLTSFITVFKYIDDKDVFQKFYARMLAKRLIHGLSMSMDSEEAMINKLKQACGYEFTSKLHRMYTDMSVSADLNNKFNNFIKNQDTVIDLGISFQIYVLQAGAWPLTQAPSSTFAIPQELEKSVQMFELFYSQHFSGRKLTWLHYLCTGEVKMNYLGKPYVAMVTTYQMAVLLAFNNSETVSYKELQDSTQMNEKELTKTIKSLLDVKMINHDSEKEDIDAESSFSLNMNFSSKRTKFKITTSMQKDTPQEMEQTRSAVDEDRKMYLQAAIVRIMKARKVLRHNALIQEVISQSRARFNPSISMIKKCIEVLIDKQYIERSQASADEYSYVA
partner: B1 chain
B3: UBX domain-containing protein 5 (Saccharomyces cerevisiae), Q06682 (parent)
chain: MSEGKVDEFMAITGADDAAIATQFIEMADGNLNTAISLFFENGGAALLSSNNTPTPSNSTPMAPTSVDSDADAQLAERLQREAYQQQQPDQDYVRPPDEARHEVLTETSGFPISYGGIGGRFEPLHRVNDMFDEGRPESIFNQRLDDTNTNTYINDNSSDSLDSEEENDDDEYEYVEEPVIELDEDGNIKEYTKLVRKPKTISKEQKLALLFRPPFSIMSKLDLDAAKQKARAKQKWIMINIQDSGIFQCQALNRDLWSSRPVKTIIKENFVFLQYQYESRNAQPYLQFYHLNNKDDLPHIAILDPITGERVKQWNRVVPIPEQFISEINEFLASFSLDPKVPNPTVNEPLPKVDPTTLTEEQQMELAIKESLNNNSSKSNQEEVPSTGEEQKRVQEPDPFSTIEARVHPEPPNKPGITTRIQIRTGDGSRLVRRFNALEDTVRTIYEVIKTEMDGFADSRFTLNDHQREDLIDKLNMTIADAGLKNSSLLLEKLDPEIE
partner: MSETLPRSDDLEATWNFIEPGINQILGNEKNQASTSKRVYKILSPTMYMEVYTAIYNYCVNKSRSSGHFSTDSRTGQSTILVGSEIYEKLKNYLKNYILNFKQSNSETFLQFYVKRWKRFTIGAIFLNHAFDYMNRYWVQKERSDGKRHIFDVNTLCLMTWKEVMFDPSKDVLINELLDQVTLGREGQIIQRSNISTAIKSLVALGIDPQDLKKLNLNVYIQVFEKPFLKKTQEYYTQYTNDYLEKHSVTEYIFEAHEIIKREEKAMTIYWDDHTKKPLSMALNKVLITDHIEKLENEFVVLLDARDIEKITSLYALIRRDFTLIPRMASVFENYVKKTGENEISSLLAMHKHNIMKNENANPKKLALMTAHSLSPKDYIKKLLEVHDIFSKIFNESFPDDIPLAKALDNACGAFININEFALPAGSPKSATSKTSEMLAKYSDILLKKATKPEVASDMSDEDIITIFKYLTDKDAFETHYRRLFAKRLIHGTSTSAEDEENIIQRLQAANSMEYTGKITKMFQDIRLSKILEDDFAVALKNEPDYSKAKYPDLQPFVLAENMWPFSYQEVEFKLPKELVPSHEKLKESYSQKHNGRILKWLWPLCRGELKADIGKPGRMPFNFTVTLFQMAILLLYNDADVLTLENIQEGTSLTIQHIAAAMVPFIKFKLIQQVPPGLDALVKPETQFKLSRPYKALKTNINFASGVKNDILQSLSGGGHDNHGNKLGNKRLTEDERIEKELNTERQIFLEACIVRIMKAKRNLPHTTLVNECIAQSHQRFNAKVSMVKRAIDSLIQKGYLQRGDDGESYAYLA

The variants in one assay derive from B1. The settings on record: with cul2_human CUL2, Q13617.
With MAAHGGSAASSALKGLIQQFTTITGASESVGKHMLEACNNNLEMAVTMFLDGGGIAEEPSTSSASVSTVRPHTEEEVRAPIPQKQEILVEPEPLFGAPKRRRPARSIFDGFRDFQTETIRQEQELRNGGAIDKKLTTLADLFRPPIDLMHKGSFETAKECGQMQNKWLMINIQNVQDFACQCLNRDVWSNEAVKNIIREHFIFWQVYHDSEEGQRYIQFYKLGDFPYVSILDPRTGQKLVEWHQLDVSSFLDQVTGFLGEHGQLDGLSSSPPKKCARSESLIDASRDSQEEAQIRASLQETHFDSTQTKQDSRSDEESESELFSGSEEFISVCGSDEEEEVENLAKSRKSPHKDLGHRKEENRRPLTEPPVRTDPGTATNHQGLPAVDSEILEMPPEKADGVVEGIDVNGPKAQLMLRYPDGKREQITLPEQAKLLALVKHVQSKGYPNERFELLTNFPRRKLSHLDYDITLQEAGLCPQETVFVQERN [E286R;L290E;A293Q], the “effect of a mutation on the interaction” value is “disrupting interaction strength”.
For the variant MAAHGGSAASSALKGLIQQFTTITGASESVGKHMLEACNNNLEMAVTMFLDGGGIAEEPSTSSASVSTVRPHTEEEVRAPIPQKQEILVEPEPLFGAPKRRRPARSIFDGFRDFQTETIRQEQELRNGGAIDKKLTTLADLFRPPIDLMHKGSFETAKECGQMQNKWLMINIQNVQDFACQCLNRDVWSNEAVKNIIREHFIFWQVYHDSEEGQRYIQFYKLGDFPYVSILDPRTGQKLVEWHQLDVSSFLDQVTGFLGEHGQLDGLSSSPPKKCARSESLIDASEDSQLEAQIRASLQETHFDSTQTKQDSRSDEESESELFSGSEEFISVCGSDEEEEVENLAKSRKSPHKDLGHRKEENRRPLTEPPVRTDPGTATNHQGLPAVDSEILEMPPEKADGVVEGIDVNGPKAQLMLRYPDGKREQITLPEQAKLLALVKHVQSKGYPNERFELLTNFPRRKLSHLDYDITLQEAGLCPQETVFVQERN [A293Q], the “effect of a mutation on the interaction” value is listed as “disrupting interaction strength”.

The variants in a further assay derive from B2. The following applies: with ubxn7_human UBXN7, O94888.
As for K689R, the “effect of a mutation on the interaction” value is “disrupting interaction strength”.

Variants of B3 are the subject of a further assay. The following applies: with cdc53_yeast CDC53, Q12018.
MSEGKVDEFMAITGADDAAIATQFIEMADGNLNTAISLFFENGGAALLSSNNTPTPSNSTPMAPTSVDSDADAQLAERLQREAYQQQQPDQDYVRPPDEARHEVLTETSGFPISYGGIGGRFEPLHRVNDMFDEGRPESIFNQRLDDTNTNTYINDNSSDSLDSEEENDDDEYEYVEEPVIELDEDGNIKEYTKLVRKPKTISKEQKLALLFRPPFSIMSKLDLDAAKQKARAKQKWIMINIQDSGIFQCQALNRDLWSSRPVKTIIKENFVFLQYQYESRNAQPYLQFYHLNNKDDLPHIAILDPITGERVKQWNRVVPIPEQFISEINEFLASFSLDPKVPNPTVNEPLPKVDPTTLTEEQQMELQIKESLNNNSSKSNQEEVPSTGEEQKRVQEPDPFSTIEARVHPEPPNKPGITTRIQIRTGDGSRLVRRFNALEDTVRTIYEVIKTEMDGFADSRFTLNDHQREDLIDKLNMTIADAGLKNSSLLLEKLDPEIE [A368Q]: the “effect of a mutation on the interaction” value is recorded as “disrupting interaction strength”.
As to MSEGKVDEFMAITGADDAAIATQFIEMADGNLNTAISLFFENGGAALLSSNNTPTPSNSTPMAPTSVDSDADAQLAERLQREAYQQQQPDQDYVRPPDEARHEVLTETSGFPISYGGIGGRFEPLHRVNDMFDEGRPESIFNQRLDDTNTNTYINDNSSDSLDSEEENDDDEYEYVEEPVIELDEDGNIKEYTKLVRKPKTISKEQKLALLFRPPFSIMSKLDLDAAKQKARAKQKWIMINIQDSGIFQCQALNRDLWSSRPVKTIIKENFVFLQYQYESRNAQPYLQFYHLNNKDDLPHIAILDPITGERVKQWNRVVPIPEQFISEINEFLASFSLDPKVPNPTVNEPLPKVDPTTLTREQQEELQIKESLNNNSSKSNQEEVPSTGEEQKRVQEPDPFSTIEARVHPEPPNKPGITTRIQIRTGDGSRLVRRFNALEDTVRTIYEVIKTEMDGFADSRFTLNDHQREDLIDKLNMTIADAGLKNSSLLLEKLDPEIE [E361R;M365E;A368Q], the “effect of a mutation on the interaction” value was “disrupting interaction strength”.
